Results as given in PMC5542768, “Structural insight into the activation of a class B G-protein-coupled receptor by peptide hormones in live human cells” (eLife, 2017).
Non-standard residues stand in square brackets, D forms with d. No end group written: not given here. *: point of attachment. Nle = CCCC[C@H](N)C(=O)O; ClAc = O=C(CCl)*

Target: corticotropin-releasing factor receptor type 1 (CRF1R), wild type (rat) (UniProt P35353)
Assay: not given
Conditions: not given

Substance | EC50 of cAMP accumulation (CRE-luciferase reporter) in HEK293 cells transfected with CRF1R | Receptor activation at 100 nM [%] (cAMP accumulation, normalized to Ucn1 or CRF)
[Lys(ClAc)^18]-^dFXCRF(12-41) (peptide) | – | 0.59%
[Lys(ClAc)^18]-^XCRF (peptide) | 0.03 nM | –
[Lys(ClAc)^15]-^dFXCRF(12-41) (peptide) | – | 0.39%
[Lys(ClAc)^14]-^dFXCRF(12-41) (peptide) | – | 1.49%
[DPhe^12,Nle^21,38]-CRF(12-41) (peptide) | – | 0.53%
Ucn1(8-40) (peptide) | – | 8.2%
[Lys(ClAc)^31]-^dFXCRF(12-41) (peptide) | – | 0.52%
[Lys(ClAc)^31]-^XCRF (peptide) | 0.06 nM | –
[Lys(ClAc)^15]-^XCRF (peptide) | 0.08 nM | –
[Lys(ClAc)^17]-^dFXCRF(12-41) (peptide) | – | 0.31%
[Lys(ClAc)^13]-^dFXCRF(12-41) (peptide) | – | 2.41%

Results, then the substance that gave them:

EC50 of cAMP accumulation (CRE-luciferase reporter) in HEK293 cells transfected with CRF1R | Receptor activation at 100 nM [%] (cAMP accumulation, normalized to Ucn1 or CRF) | Substance
0.2 nM | – | [Lys(ClAc)^16]-^XCRF (peptide)
0.08 nM | – | [Lys(ClAc)^17]-^XCRF (peptide)
– | 4.03% | CRF(9-41) (peptide)
0.11 nM | – | corticotropin-releasing factor (CRF) (from UniProt P06850 154-196) (peptide)
0.04 nM | – | [Lys(ClAc)^33]-^XCRF (peptide)
– | 0.62% | [ClAc^0]-^dFXCRF(12-41) (peptide)
– | 1.85% | [Lys(ClAc)^33]-^dFXCRF(12-41) (peptide)
– | 1.06% | [Lys(ClAc)^16]-^dFXCRF(12-41) (peptide)
0.03 nM | – | [Lys(ClAc)^13]-^XCRF (peptide)
0.16 nM | – | Urocortin I (Ucn1) (from UniProt P55089 83-124) (peptide)

Target: T1, CRF1R (Rattus norvegicus, UniProt P35353)
T1 construct: all our experimental data are obtained from the intact full-length, fully glycosylated receptor at the membrane of the live cell; expressed in transfected cells; host or cells: HEK293 (transient co-transfection with CRE-luciferase reporter and Renilla plasmid)
T1 sequence (P35353 24-415): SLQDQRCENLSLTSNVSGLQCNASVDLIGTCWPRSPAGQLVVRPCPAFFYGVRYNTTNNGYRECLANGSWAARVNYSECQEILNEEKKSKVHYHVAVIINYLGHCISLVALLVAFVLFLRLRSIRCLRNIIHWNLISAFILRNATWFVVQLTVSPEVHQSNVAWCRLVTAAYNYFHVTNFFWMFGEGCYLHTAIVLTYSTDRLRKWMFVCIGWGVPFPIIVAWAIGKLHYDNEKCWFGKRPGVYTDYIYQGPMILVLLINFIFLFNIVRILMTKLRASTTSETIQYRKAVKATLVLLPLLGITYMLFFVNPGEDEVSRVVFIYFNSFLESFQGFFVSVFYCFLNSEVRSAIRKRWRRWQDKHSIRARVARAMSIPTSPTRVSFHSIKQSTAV
Assay: cAMP accumulation assay via luciferase reporter (ligand alone)
Type: cell-based
Conditions: 100 nM peptide; normalized to either Ucn1 or CRF; HEK293; mean ± s.e.m., at least three independent experiments, each in triplicate
Description: Figure 1. Photo-crosslinking mapping of CRF1R to determine footprints of agonists and antagonists. (A) Sequence alignment of CRF1R peptide ligands. The classification into N-terminus, C-terminus and helical connector is adopted from [Beyermann et al. (2000]). […] In ^dFXCRF(12-41), substitutions of the two native Met residues to Nle and the N-terminal D-amino acid to enhance its stability and potency ([Rivier and Rivier, 2014]). […] The assay measures cAMP accumulation in live HEK293 cells stimulated with serial dilutions of each ligand via a luciferase reporter. Plots are representative mean ± s.e.m. of at least three independent experiments, each run in triplicates. (B) CRF1R activation elicited by each of the ligands used in this study. […] (E) Photo-crosslinking experiments. Transiently transfected 293T cells expressing each Azi-CRF1R mutant (residues replaced by Azi are indicated in the upper row) were incubated with each of the five peptide ligands indicated in the right column, followed by UV irradiation (365 nm). […] To obtain sharper bands, samples were deglycosylated by PNGaseF. The subdivision of transmembrane helices and ECLs is based on the crystal structure of the CRF1R TMD ([Hollenstein et al., 2013]). […] DOI: http://dx.doi.org/10.7554/eLife.27711.002 Figure 1—source data 1. Numerical values of cAMP accumulation assay. The assay measures cAMP accumulation in live HEK293 cells stimulated with serial dilutions of each ligand via a luciferase reporter. Raw luminescence data of the firefly reporter luciferase were normalized to the Renilla control and to 100% activation of agonists. At least three independent experiments were performed per ligand, and each experiment was run in triplicate. Values in the table represent a single measurement. Mean ± s.e.m. of triplicates for one representative experiment are reported in Figure 1B–D. DOI: http://dx.doi.org/10.7554/eLife.27711.003 Figure 1—source data 2. Numerical values of whole-cell ELISA of HA-Azi-CRF1R mutants. Related to Figure 1—figure supplement 1. The absorption was measured at 492 nm. Each data point was obtained as mean of three independent experiments, each performed in triplicate. Mean ± s.e.m. of the means of the triplicates are plotted in Figure 1—figure supplement 1B. DOI: http://dx.doi.org/10.7554/eLife.27711.004 Figure 1—figure supplement 1. Expression profiles of a subset of Azi-CRF1R mutants. […] (A) Whole-cell lysates of 293T cells transiently expressing each Azi-CRF1R mutant were resolved on 10% SDS-PAGE and analyzed by Western blotting using an M2 anti-FLAG-HRP antibody. The Azi mutation site is indicated in the top row. […] (B) Whole-cell ELISA of HA-Azi-CRF1R mutants. The absorptions at 492 nm (OD492) are shown as mean ± s.e.m. obtained from three independent experiments each performed in triplicates and normalized to wild type (wt). The positions replaced by Azi are identical to (A). DOI: http://dx.doi.org/10.7554/eLife.27711.005 [drawing 1]
The day prior to transfection, 6 × 10^6 HEK293 cells were seeded in 10 cm dishes. Cells were co-transfected with 0.5 µg of plasmid encoding the wild-type CRF1R gene under control of a PGK promoter, 5 µg of the reporter construct (humanized PpyRE9 [[Branchini et al., 2010]] firefly luciferase gene driven by a cAMP-responsive element and followed by a PEST sequence), and 0.5 µg of plasmid encoding Renilla luciferase driven by a CMV promoter. Transfection was performed using PEI max as described above. The following day, cells were trypsinized and transferred into a 96-well plate at a density of 180,000 cells per well.

Receptor activation at 100 nM | Substance
4.03 ± 1.27% | CRF(9-41): 33-mer antagonist obtained by N-terminal truncation of the first eight residues of CRF (DLTFHLLREVLEMARAEQLAQQAHSNRKLMEII; ends and bridges not checked; UniProt P06850 162-194, looked up, fragment)
0.53 ± 0.47% | [DPhe^12,Nle^21,38]-CRF(12-41) [^dFXCRF(12-41)]
8.20 ± 2.76% | Ucn1(8-40): 33-mer N-truncated Ucn1 antagonist, introduced in this work for the first time (DLTFHLLRTLLELARTQSQRERAEQNRIIFDSV; ends and bridges not checked; UniProt P55089 90-122, looked up, fragment)

Same assay, conditions: Figure 1B legend; HEK293, luciferase reporter

CRF1R activation / residual activity up to the maximal tested concentration of 100 nM | Substance
< 10% | CRF(9-41): 33-mer antagonist obtained by N-terminal truncation of the first eight residues of CRF (DLTFHLLREVLEMARAEQLAQQAHSNRKLMEII; ends and bridges not checked; UniProt P06850 162-194, looked up, fragment)
< 10% | Ucn1(8-40): 33-mer N-truncated Ucn1 antagonist, introduced in this work for the first time (DLTFHLLRTLLELARTQSQRERAEQNRIIFDSV; ends and bridges not checked; UniProt P55089 90-122, looked up, fragment)

Substance | CRF1R activation / residual activity up to the maximal tested concentration of 100 nM
[DPhe^12,Nle^21,38]-CRF(12-41) [^dFXCRF(12-41)] | did not elicit any significant receptor activation

Same assay, conditions: HEK293, luciferase reporter; agrees with literature data

EC50 (Figure 1B legend) | Substance
Sub-nanomolar | corticotropin-releasing factor (SEEPPISLDLTFHLLREVLEMARAEQLAQQAHSNRKLMEIIGK) [CRF, 41-mer endogenous peptide agonist of CRF1R]
Sub-nanomolar | Urocortin I (DNPSLSIDLTFHLLRTLLELARTQSQRERAEQNRIIFDSVGK) [Ucn1, 40-mer endogenous peptide agonist of CRF1R]

Same assay, conditions: cAMP level via luciferase reporter, transiently transfected HEK293 cells, 3 hr stimulation at 37°C; mean ± s.e.m., at least three independent experiments, each in triplicate

Substance | EC50
SEEPPISLDLTFHLLREVLE[Nle]ARAEQLAQQAHK(ClAc)NRKL[Nle]EII-NH2 [[Lys(ClAc)^33]- ^XCRF] | 0.04 nM
SEEPPISLDLTFHLLRK(ClAc)VLE[Nle]ARAEQLAQQAHSNRKL[Nle]EII-NH2 [[Lys(ClAc)^17]- ^XCRF] | 0.08 nM
SEEPPISLDLTFHLK(ClAc)REVLE[Nle]ARAEQLAQQAHSNRKL[Nle]EII-NH2 [[Lys(ClAc)^15]- ^XCRF] | 0.08 ± 0.22 nM

Tested on: CRF1R
Assay: not given
Conditions: ref Gulyas et al., 1995; cited from earlier work

Substance | Binding affinity of CRF1R relative to CRF (lower)
[DPhe^12,Nle^21,38]-CRF(12-41) [^dFXCRF(12-41)] | ~ 10 fold
